The record followed here is article PMC11110527 (Chemical Science, 2024).

This series deals with the molecule itself. Nature of the series: negative-stain electron microscopy.

B1: AtPORB Y177F_H319A double mutant (enzyme, A. thaliana)
chain: QTAATSSPTVTKSVDGKKTLRKGNVVVTGASSGLGLATAKALAETGKWNVIMACRDFLKAERAAKSVGMPKDSYTVMHLDLASLDSVRQFVDNFRRTETPLDVLVCNAAVFFPTAKEPTYSAEGFELSVATNHLGHFLLARLLLDDLKKSDYPSKRLIIVGSITGNTNTLAGNVPPKANLGDLRGLAGGLNGLNSSAMIDGGDFDGAKAYKDSKVCNMLTMQEFHRRFHEETGVTFASLYPGCIASTGLFREAIPLFRALFPPFQKYITKGYVSETESGKRLAQVVSDPSLTKSGVYWSWNNASASFENQLSEEASDVEKARKVWEISEKLVGLA
Regarding B1, the binding result is “binds”.
